Legend:
c-Src SH2 = test: SH2 binding enrichment of the phosphorylated peptide, bacterial display (enrichment ratio); higher = better substrate or ligand; peptides without Tyr show the background
Grb2 SH2 = Grb2 SH2 (UniProt P62993); test: as above
SHP2-C SH2 = test: as above
c-Abl (mouse) = test: phosphorylation enrichment, bacterial display (enrichment ratio); higher = better substrate or ligand; peptides without Tyr show the background
c-Src = test: as above
Fyn = Fyn (UniProt P06241); test: as above
Fyn, sequence (P06241 whole entry, looked up): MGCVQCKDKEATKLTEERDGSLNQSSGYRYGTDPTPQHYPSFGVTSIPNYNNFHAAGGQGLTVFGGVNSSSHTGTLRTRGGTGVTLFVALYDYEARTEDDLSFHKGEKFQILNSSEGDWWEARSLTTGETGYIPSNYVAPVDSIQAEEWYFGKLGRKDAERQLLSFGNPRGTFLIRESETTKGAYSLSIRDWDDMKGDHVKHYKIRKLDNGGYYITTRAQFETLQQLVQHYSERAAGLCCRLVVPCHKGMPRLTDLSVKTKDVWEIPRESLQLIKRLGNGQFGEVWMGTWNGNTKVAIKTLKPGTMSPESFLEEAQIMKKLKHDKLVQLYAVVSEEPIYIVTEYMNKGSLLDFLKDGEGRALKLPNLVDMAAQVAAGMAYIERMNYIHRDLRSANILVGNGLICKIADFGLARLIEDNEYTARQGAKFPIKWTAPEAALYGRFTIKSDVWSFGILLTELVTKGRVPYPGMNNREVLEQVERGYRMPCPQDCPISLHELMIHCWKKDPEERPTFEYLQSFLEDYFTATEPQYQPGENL

Fer (mouse) = test: as above
FGFR3 = FGFR3 (UniProt P22607); test: as above
FGFR3, sequence (P22607 whole entry, looked up): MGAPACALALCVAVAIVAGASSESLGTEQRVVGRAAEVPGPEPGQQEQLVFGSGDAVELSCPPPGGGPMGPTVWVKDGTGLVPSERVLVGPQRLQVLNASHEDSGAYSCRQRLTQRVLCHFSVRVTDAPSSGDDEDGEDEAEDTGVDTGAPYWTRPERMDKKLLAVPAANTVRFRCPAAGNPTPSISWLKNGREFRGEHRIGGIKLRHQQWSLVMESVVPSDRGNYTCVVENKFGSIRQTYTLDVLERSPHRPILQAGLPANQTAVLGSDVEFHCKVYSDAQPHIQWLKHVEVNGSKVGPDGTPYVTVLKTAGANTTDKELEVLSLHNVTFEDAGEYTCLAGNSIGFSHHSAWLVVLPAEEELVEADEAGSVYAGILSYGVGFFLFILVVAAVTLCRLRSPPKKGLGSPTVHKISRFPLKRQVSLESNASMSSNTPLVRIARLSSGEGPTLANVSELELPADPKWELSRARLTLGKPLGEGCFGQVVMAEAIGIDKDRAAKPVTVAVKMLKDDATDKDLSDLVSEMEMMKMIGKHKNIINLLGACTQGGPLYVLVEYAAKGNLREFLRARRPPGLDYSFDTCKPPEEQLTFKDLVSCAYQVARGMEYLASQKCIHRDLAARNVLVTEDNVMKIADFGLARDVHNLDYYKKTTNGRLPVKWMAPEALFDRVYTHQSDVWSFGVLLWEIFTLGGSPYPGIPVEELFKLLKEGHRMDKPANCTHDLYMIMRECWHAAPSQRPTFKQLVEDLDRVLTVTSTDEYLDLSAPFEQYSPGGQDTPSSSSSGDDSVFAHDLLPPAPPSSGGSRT

Fes = Fes (UniProt P07332); test: as above
MERTK = MERTK (UniProt Q12866); test: as above
MERTK, sequence (Q12866 whole entry, looked up): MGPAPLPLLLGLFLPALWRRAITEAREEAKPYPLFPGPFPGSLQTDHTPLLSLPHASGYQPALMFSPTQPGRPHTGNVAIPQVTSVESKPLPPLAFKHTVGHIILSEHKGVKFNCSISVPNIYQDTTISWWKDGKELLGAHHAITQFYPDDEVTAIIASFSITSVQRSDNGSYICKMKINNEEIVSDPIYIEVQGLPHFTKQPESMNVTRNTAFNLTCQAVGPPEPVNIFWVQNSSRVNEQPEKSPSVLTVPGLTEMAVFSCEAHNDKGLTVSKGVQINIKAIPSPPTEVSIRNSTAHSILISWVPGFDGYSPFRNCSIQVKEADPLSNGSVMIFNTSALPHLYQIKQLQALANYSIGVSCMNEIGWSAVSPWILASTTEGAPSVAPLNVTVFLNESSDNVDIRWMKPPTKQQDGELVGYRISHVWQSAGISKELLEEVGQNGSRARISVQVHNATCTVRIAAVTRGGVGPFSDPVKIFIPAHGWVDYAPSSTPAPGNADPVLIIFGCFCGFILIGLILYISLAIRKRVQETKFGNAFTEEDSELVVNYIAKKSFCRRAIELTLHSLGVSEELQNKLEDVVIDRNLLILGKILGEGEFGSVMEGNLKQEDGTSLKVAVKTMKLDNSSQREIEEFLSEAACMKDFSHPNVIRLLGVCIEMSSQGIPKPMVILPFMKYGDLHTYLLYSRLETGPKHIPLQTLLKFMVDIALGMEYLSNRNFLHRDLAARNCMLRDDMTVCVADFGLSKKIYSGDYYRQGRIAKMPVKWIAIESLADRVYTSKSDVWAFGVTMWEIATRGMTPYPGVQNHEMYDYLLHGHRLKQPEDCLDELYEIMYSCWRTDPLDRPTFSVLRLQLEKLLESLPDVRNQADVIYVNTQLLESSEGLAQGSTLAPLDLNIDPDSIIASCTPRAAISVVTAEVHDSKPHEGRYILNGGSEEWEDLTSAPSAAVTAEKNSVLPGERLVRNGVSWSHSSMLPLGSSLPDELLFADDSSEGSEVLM

AncSZ = test: as above
Jak2 = Jak2 (UniProt O60674); test: as above
Hck = Hck (UniProt P08631); test: as above
Hck, sequence (P08631 whole entry, looked up): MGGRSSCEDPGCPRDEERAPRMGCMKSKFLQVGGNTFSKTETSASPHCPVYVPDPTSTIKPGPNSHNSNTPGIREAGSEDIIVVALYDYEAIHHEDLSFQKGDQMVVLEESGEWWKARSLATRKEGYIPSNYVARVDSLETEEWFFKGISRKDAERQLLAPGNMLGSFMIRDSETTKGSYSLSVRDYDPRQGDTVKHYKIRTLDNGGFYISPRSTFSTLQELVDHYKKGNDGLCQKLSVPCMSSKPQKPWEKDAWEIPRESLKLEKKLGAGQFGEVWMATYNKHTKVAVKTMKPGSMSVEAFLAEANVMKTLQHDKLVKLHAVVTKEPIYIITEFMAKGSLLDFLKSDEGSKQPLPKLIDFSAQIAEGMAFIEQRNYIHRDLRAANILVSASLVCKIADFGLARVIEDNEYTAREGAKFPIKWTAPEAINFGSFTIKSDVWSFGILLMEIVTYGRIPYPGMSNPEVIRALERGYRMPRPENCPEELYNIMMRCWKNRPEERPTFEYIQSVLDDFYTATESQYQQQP

FGFR1 = FGFR1 (UniProt P11362); test: as above
FGFR1, sequence (P11362 whole entry, looked up): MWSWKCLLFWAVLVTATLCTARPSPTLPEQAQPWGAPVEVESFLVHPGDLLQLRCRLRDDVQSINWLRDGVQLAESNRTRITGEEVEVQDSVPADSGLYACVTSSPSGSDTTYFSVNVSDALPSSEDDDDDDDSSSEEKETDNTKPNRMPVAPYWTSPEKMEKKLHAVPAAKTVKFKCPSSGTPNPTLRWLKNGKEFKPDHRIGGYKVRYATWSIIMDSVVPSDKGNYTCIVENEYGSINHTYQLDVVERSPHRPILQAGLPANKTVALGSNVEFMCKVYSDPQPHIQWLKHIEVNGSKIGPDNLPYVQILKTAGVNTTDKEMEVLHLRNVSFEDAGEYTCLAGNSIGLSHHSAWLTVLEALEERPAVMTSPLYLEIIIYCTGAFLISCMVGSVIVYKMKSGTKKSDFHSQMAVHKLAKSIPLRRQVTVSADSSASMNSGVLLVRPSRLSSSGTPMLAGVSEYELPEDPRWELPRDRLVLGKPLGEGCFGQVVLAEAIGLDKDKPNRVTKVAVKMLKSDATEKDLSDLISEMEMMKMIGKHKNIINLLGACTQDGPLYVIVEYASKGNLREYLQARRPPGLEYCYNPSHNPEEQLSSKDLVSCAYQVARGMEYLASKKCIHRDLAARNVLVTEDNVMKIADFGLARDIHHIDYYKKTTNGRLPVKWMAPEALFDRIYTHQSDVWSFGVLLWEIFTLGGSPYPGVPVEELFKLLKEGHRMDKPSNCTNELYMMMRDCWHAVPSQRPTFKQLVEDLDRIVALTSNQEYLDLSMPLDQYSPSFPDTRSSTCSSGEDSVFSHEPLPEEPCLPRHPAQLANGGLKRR

EPHB1 = EPHB1 (UniProt P54762); test: as above
EPHB2 = EPHB2 (UniProt P29323); test: as above
EPHB2, sequence (P29323 whole entry, looked up, the tested form may be a part): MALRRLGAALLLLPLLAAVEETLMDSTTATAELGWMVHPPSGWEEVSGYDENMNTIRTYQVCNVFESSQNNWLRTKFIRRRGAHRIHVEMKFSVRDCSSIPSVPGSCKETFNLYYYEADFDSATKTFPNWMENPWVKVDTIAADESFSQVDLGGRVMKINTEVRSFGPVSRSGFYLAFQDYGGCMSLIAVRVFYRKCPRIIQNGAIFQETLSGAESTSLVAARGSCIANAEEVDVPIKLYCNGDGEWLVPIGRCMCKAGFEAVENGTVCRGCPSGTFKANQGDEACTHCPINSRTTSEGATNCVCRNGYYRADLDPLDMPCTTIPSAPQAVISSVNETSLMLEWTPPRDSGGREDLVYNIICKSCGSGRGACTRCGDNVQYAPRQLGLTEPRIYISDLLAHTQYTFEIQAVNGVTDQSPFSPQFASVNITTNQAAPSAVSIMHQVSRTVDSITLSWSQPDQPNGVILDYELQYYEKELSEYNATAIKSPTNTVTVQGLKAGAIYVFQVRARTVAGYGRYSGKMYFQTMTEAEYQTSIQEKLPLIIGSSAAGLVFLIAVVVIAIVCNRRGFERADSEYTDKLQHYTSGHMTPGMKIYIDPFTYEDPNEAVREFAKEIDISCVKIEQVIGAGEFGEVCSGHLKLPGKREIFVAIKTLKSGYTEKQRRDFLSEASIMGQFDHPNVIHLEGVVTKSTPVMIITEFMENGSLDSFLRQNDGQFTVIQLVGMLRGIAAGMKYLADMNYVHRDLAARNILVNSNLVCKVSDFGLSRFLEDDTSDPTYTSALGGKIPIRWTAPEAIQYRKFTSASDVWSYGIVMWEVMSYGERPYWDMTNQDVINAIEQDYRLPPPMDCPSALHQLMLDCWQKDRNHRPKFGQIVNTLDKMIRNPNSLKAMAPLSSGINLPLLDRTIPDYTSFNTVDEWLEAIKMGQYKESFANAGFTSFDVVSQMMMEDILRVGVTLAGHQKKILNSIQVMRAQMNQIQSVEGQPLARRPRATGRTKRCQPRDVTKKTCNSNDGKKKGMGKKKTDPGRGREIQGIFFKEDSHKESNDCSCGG
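Throughout, for SH2 binding enrichment of the phosphorylated peptide, bacterial display: peptide library displayed on the E. coli surface as eCPX fusions, selected cells deep-sequenced, score is each peptide's frequency after selection divided by its frequency in the input.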
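Throughout, for phosphorylation enrichment, bacterial display: 11-residue human phosphosite peptides and single-mutation variants displayed on the E. coli surface, counted by deep sequencing, each peptide's frequency after selection divided by its frequency in the unselected input library; frequency after pTyr selection over input frequency; kinase dosed for 20-30% of maximal phosphorylation in three min.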

Grb2 SH2, sequence (P62993 whole entry, looked up): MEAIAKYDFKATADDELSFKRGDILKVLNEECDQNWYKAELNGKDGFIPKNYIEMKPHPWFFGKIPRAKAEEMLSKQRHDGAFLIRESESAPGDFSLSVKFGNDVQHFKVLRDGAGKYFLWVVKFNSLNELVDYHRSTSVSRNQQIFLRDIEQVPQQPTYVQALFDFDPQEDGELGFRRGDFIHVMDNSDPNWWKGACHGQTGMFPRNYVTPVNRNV

Row | Sequence | SH2 binding enrichment (c-Src SH2) | SH2 binding enrichment (Grb2 SH2) | SH2 binding enrichment (SHP2-C SH2) | phosphorylation enrichment (c-Abl (mouse)) | phosphorylation enrichment (c-Src) | phosphorylation enrichment (Fyn) | phosphorylation enrichment (Fer (mouse)) | phosphorylation enrichment (FGFR3) | phosphorylation enrichment (Fes) | phosphorylation enrichment (MERTK) | phosphorylation enrichment (AncSZ) | phosphorylation enrichment (Jak2) | phosphorylation enrichment (Hck) | phosphorylation enrichment (FGFR1) | phosphorylation enrichment (EPHB1) | phosphorylation enrichment (EPHB2)
1 | SPLTDYSPQLQ [OTC_Y345_L341P] | 0.484 | 0.878 | 0.712 | 0.661 | 0.496 | 0.403 | 0.421 | 0.489 | 0.67 | 0.479 | 0.749 | 0.691 | 0.417 | 0.522 | 0.414 | 0.517
2 | SPPILYSFFLN [FCRL6_Y239_D244N_YF] | 0.763 | 1.29 | 1.28 | 2.75 | 3.41 | 2.46 | 5.01 | 1.38 | 1.17 | 10.5 | 1.08 | 1.05 | 3.03 | 1.41 | 3.03 | 2.36
3 | SQPASYQRRLL [PPIG_Y320] | 0.428 | 0.729 | 0.54 | 0.301 | 0.365 | 0.53 | 0.286 | 0.396 | 0.451 | 0.316 | 0.394 | 0.35 | 0.253 | 0.472 | 0.313 | 0.337
4 | SRIWVYNHYRC [BRCA2_Y2621_W2626C] | 0.695 | 0.938 | 0.864 | 0.65 | 0.392 | 0.396 | 0.482 | 0.726 | 1.11 | 0.377 | 0.927 | 0.934 | 0.459 | 0.51 | 0.555 | 0.587
5 | SRIWVYNHYRW [BRCA2_Y2621] | 1.17 | 1.14 | 1.1 | 0.783 | 0.402 | 0.469 | 0.396 | 0.845 | 1.59 | 0.466 | 1.05 | 0.95 | 0.442 | 0.574 | 0.671 | 0.466
6 | SRPHLYGTPSR [ADGRE2_Y670] | 1.09 | 1.54 | 0.825 | 0.538 | 0.441 | 0.615 | 0.402 | 0.619 | 0.587 | 0.58 | 0.609 | 0.588 | 0.565 | 0.426 | 0.493 | 0.617
7 | SSENPYATIKD [MEGF10_Y1030] | 14 | 0.985 | 9.45 | 0.741 | 2.31 | 1.52 | 0.944 | 0.53 | 0.897 | 0.506 | 0.87 | 0.876 | 1.65 | 0.496 | 0.458 | 0.597
8 | SSMIDYNPLEK [MYOC_Y479] | 0.373 | 0.744 | 0.641 | 0.663 | 0.689 | 0.596 | 0.44 | 0.595 | 0.945 | 0.463 | 0.971 | 1.07 | 0.512 | 0.475 | 0.517 | 0.533
9 | SSMSDYNPLEK [MYOC_Y479_I477S] | 0.525 | 0.746 | 0.558 | 0.657 | 0.439 | 0.47 | 0.558 | 0.581 | 0.876 | 0.425 | 0.87 | 0.756 | 0.525 | 0.506 | 0.501 | 0.515
10 | SSNLFYRWLTA [CNGA3_Y169_YF] | 0.466 | 0.692 | 0.591 | 0.665 | 0.398 | 0.473 | 0.493 | 0.744 | 0.982 | 0.532 | 1.09 | 0.846 | 0.557 | 0.621 | 0.594 | 0.526
11 | STEAIYWRYSK [SH3PXD2B_Y42_R43W] | 0.355 | 0.752 | 0.551 | 8.71 | 3.47 | 4.84 | 0.502 | 1.53 | 1.28 | 1.34 | 1.33 | 1.26 | 3.66 | 1.54 | 1.44 | 1.39
12 | STFVPCEIKVQ [L1CAM_Y784_Y784C] | 0.497 | 0.819 | 0.578 | 1.04 | 0.444 | 0.49 | 0.669 | 1.05 | 1.61 | 0.386 | 1.3 | 1.39 | 0.589 | 0.579 | 0.685 | 0.727
13 | STILLYHIMAW [GPR143_Y157] | 0.634 | 0.876 | 0.899 | 1.23 | 1.01 | 0.766 | 1.02 | 2.88 | 1.64 | 4.05 | 1.59 | 1.89 | 1.44 | 2.8 | 4.83 | 2.88
14 | SVIVPYEPPEV [TP53_Y220_V217I] | 1.28 | 0.731 | 0.712 | 0.831 | 0.445 | 0.654 | 0.631 | 0.81 | 1.23 | 0.447 | 1.1 | 1.08 | 0.517 | 0.6 | 0.622 | 0.618
15 | SVLVPYEPPEV [TP53_Y220_V217L] | 1.14 | 0.892 | 0.859 | 0.874 | 0.541 | 0.555 | 0.63 | 0.899 | 1.33 | 0.463 | 1.36 | 1.32 | 0.651 | 0.505 | 0.651 | 0.757
16 | SVSNNYIQTLG [CTNND1_Y174] | 0.638 | 0.846 | 0.803 | 0.637 | 0.445 | 0.432 | 0.451 | 0.585 | 0.658 | 0.621 | 0.606 | 0.508 | 0.417 | 0.476 | 0.491 | 0.426
